From patent US6670160B2, “α1,2-fucosyltransferase” (priority 1998, dated 2003)
“And” between values parts separate entries of the source, which are not always exact repeats. Equal entries are not always repeated.

Columns and labels:
Type in all cases: biochemical
[1] = Fucosyltransferase assay (GDP-[3H]fucose), acceptor LacNAc
Experimental: (§1) In a typical experiment, E. coli CLM4 (pGP1-2) cells haboring a plasmid carrying an H. pylori fucT gene (pBKHp763fucT39, pGEMH2, pGEMI6 or pGEMB3) were grown in 25 ml liquid LB medium with appropriate antibiotics (kanamycin and ampicillin) at 30° C. to an optical density of 0.5-0.7 at 600 nm. After being collected, the cells were washed once with M9 medium, resuspended in 5 ml of supplemented M9 medium, and farther incubated at 30° C. for 1 h. To induce the expression of the fucT gene, the cell culture was shifted to 42° C. by adding 5 ml prewarmed (55° C.) supplemented M9 medium. After incubation at 42° C. for 15 min, rifampicin was added to a final concentration of 200 μg/ml, and cell growth was continued at 42° C. for 20 min.
(§2) For analysis of the protein on SDS-PAGE, a small aliquot (0.5 ml) of the cell culture was taken, and 2.5 μl of [^35S]-methionine (4.35×10^13 Bq/mmol, 3.7×10^8 Bq/ml, NEN™, Boston, Mass.) was added. After further growth at 30° C. for 30 min, the cells were harvested, resuspended in 100 μl sample buffer (50 mM Tris-HCl, pH6.8, 1% (w/v) SDS, 20 mM EDTA, 1% (v/v) mercaptoethanol, 10% (v/v) glycerol), and boiled for 3 min before loading on to the gel. For the preparation of the sample for the enzyme assay, the remaining part (major aliquot, 9.5 ml) of the cell culture after induction was further incubated at 30° C. for 30 min, then harvested. The cells were washed with 1.5 ml of 20 mM HEPES (pH 7.0), and resuspended in 1.5 ml of this buffer supplemented with 0.5 mM PMSF.
(§3) Preparation of cell lysates or cell extracts for the fucosyltransferase assay. […]
(§4) Assays of Hp α1,2 and a 1,3 FucT activities were carried out according to the method described by Chan et al. (1995, Glycobiology 5:683-688) with some modifications. […] For calculation of the specific activity of the enzyme (micro-units per milligram protein), protein concentrations of the cell extracts were determined with a BCA protein assay kit (Pierce, Rockford, Ill.) using BSA as a standard according to the supplier's instructions.

[2] = Fucosyltransferase assay (GDP-[3H]fucose), acceptor Le^X; details: for total activity: from 25 ml cell culture
Experimental: as §1, §2
(§5) Preparation of cell lysates or cell extracts for the fucosyltransferase assay. The E. coli cells containing overproduced Hp FucT proteins, which were in HEPES buffer with PMSF as described above, were disrupted with a French press at 7000 lb/in^2 at 4° C. The cell lysates were used directly for enzyme assays. For determining the location of the enzyme activities, the cytoplasmic and membrane fractions were separated as follows. The cell lysates were centrifuged at 13,000× g at 4° C. for 10 min. The cell debris were discarded and the supernatant was subjected to ultracentrifugation at 128,000× g (Beckman TL100/rotor 100.2) at 4° C. for 1 h. The supernatant was collected as the cytoplasmic fraction. The membrane pellets were resuspended in a small volume of the same buffer and treated with 1 M NaCl.
(§6) Assays of Hp α1,2 and a 1,3 FucT activities were carried out according to the method described by Chan et al. (1995, Glycobiology 5:683-688) with some modifications. Reactions were conducted at 37° C. for 20 min in a volume of 20 μl containing 1.8 mM acceptor, 50 μM GDP-fucose, 60000 dpm GDP-[^3H]fucose, 20 mM HEPES buffer (pH7.0), 20 mM MnCl2, 0.1 M NaCl, 35 mM MgCl2, 1 mM ATP, 5 mg/ml BSA, and 6.2 μl of the enzyme preparation. The acceptors used in this study were: LacNAc [βGal 1-4 βGlcNAc], Le^X [βGal 1-4 (α Fuc1-3) βGlcNAc], Type 1 [[…] 1-3 βGlcNAc], and Le^a [βGal 1-3 (α Fuc1-4) βGlcNAc]. GDP-[^3H]fucose (1.9×10^11 Bq/ml/mmol) was obtained from American Radiolabeled Chemicals Inc. (St. Louis, Mo.). Sep-Pak Plus C-18 reverse-phase cartridges were purchased from Waters (Mississauga, ON). For calculation of the specific activity of the enzyme (micro-units per milligram protein), protein concentrations of the cell extracts were determined with a BCA protein assay kit (Pierce, Rockford, Ill.) using BSA as a standard according to the supplier's instructions.

[3] = Fucosyltransferase assay (GDP-[3H]fucose), acceptor Type 1; details: for total activity: from 25 ml cell culture
Experimental: as §1, §2, §5, §6

[4] = Fucosyltransferase assay (GDP-[3H]fucose), acceptor Le^a
Experimental: as §1, §2, §3, §4

[5] = Reaction products by capillary electrophoresis, TMR-labeled acceptor LacNAc; details: acceptor LacNAc labeled with TMR; expected product H type 2
Description: (§7) The reaction products synthesized from different acceptors by the Hp α1,2 FucT were further characterized by capillary electrophoresis with laser-induced fluorescence detection. The reaction mixture contained the overproduced UA802 α1,2 FucT protein (from pGEMI6 clone), GDP-fucose, and different acceptors labeled with tetramethylrhodamine (TMR). The results (FIG. 7) confirmed the data from the enzyme assay using radioactive labeled GDP-fucose (Table 3B) by identifying the products of the reactions.

[6] = Reaction products by capillary electrophoresis, TMR-labeled acceptor Le^X; details: acceptor Le^X labeled with TMR; peak co-migrated with standard Le^Y
Description: as §7

[7] = Reaction products by capillary electrophoresis, TMR-labeled acceptor Type 1; details: acceptor Type 1 labeled with TMR; authentic product H type 1
Description: as §7

[8] = Reaction products by capillary electrophoresis, TMR-labeled acceptor Le^a; details: acceptor Le^a labeled with TMR; authentic product Le^b
Description: as §7

[9] = acceptor Le^x, membrane fraction
[10] = acceptor Type 1, cytoplasm fraction

B1: α1,2FucT (UA802): H. pylori UA802 α1,2-fucosyltransferase (SEQ ID NO:2), overexpressed in E. coli from plasmid pGEMI6 (protein)
chain: MAFKVVQICGGLGNQMFQYAFAKSLQKHLNTPVLLDTTSFDWSNRKMQLELFPIDLPYANAKEIAIAKMQHLPKLVRDALKYIGFDRVSQEIVFEYEPKLLKPSRLTYFFGYFQDPRYFDAISSLIKQTFTLPPPPENNKNNNKKEEEYQRKLSLILAAKNSVFVHIRRGDYVGIGCQLGIDYQKKALEYMAKRVPNMELFVFCEDLKFTQNLDLGYPFTDMTTRDKEEEAYWDMLLMQSCKHGIIANSTYSWWAAYLMENPEKIIIGPKHWLFGHENILCKEWVKIESHFEVKSQKYNA
In the case of B1, the specific activity ([1]; E. coli whole cell extract containing the overexpressed FucT protein) is reported as 14 ± 8 μU/mg, the “α1,2 FucT activity (in words)” value ([1]; enzyme from pGEMI6) is reported as “almost no activity was detected” and the relative activity ([1]; relative to UA802 α1,2 FucT on its best substrate Type 1) is reported as 4.5%. The specific activity ([2]; acceptor Le^X, proposed product Le^Y, E. coli whole cell extract) was 150 ± 33 μU/mg, the “α1,2 FucT activity (in words)” value ([2]; acceptor Le^X, enzyme from pGEMI6) was “considerable activity was observed” and the “activity in the membrane fraction (in words)” value ([2]; acceptor Le^X, membrane fraction) was “no detectable activity”. The relative activity ([2]; acceptor Le^X, relative to UA802 α1,2 FucT on its best substrate Type 1) was 49%, the “relative activity (percentage of the total activity)” value ([2]; acceptor Le^x, cytoplasm fraction) was 100% and the specific activity ([2]; acceptor Le^x, cytoplasm fraction of E. coli CLM4 (pGP1-2, pGEMI6), listed as H. pylori α1,2 FucT) was 41 μU/mg protein and 38 μU/mg protein. For the same molecule, the total activity ([2]; acceptor Le^x, cytoplasm fraction, listed as H. pylori α1,2 FucT) was 54 μU and 49 μU, the “relative activity (percentage of the total activity)” value [2, 9] was 0% and the specific activity ([2]; acceptor Le^x, membrane fraction of E. coli CLM4 (pGP1-2, pGEMI6)) was 0 μU/mg protein. For the same molecule, the total activity [2, 9] was 0 μU, the specific activity ([3]; acceptor Type 1, proposed product H type 1, E. coli whole cell extract) was 309 ± 28 μU/mg and the “relative activity (percentage of the total activity)” value [3, 10] was 100%. It also gave a specific activity ([3]; acceptor Type 1, cytoplasm fraction of E. coli CLM4 (pGP1-2, pGEMI6)) of 78 μU/mg protein, a total activity [3, 10] of 108 μU and a specific activity ([3]; acceptor Type 1, membrane fraction of E. coli CLM4 (pGP1-2, pGEMI6)) of 8 μU/mg protein. The total activity ([3]; acceptor Type 1, membrane fraction) was 3 μU, the “relative activity (percentage of the total activity)” value ([3]; acceptor Type 1, membrane fraction, listed as H. pylori α1,2 FucT) was 3% and the “relative activity (percentage of the total activity)” value ([3]; acceptor Type 1, membrane fraction, listed as Hp α1,2 FucT) was “less than 3%”. The relative activity ([3]; acceptor Type 1, relative to UA802 α1,2 FucT on its best substrate Type 1) was 100%, the “activity compared to Le^X” value ([3]; acceptor Type 1 versus Le^X) was 2 fold and the “activity compared to Le^X” value ([4]; acceptor Le^a versus Le^X) was 2 fold. The specific activity ([4]; acceptor Le^a, proposed product Le^b, E. coli whole cell extract) was 301 ± 13 μU/mg, the relative activity ([4]; acceptor Le^a, relative to UA802 α1,2 FucT on its best substrate Type 1) was 97% and the “reaction product in electropherogram” value [5] was “no reaction product representing H type 2 was observed”. For the same molecule, the “reaction product in electropherogram” value [6] was “a small new peak was produced”, the “reaction product in electropherogram” value [7] was “new peaks co-migrating with authentic products” and the “reaction product in electropherogram” value [8] was “new peaks co-migrating with authentic products”.
